# Laboratory results taken from article PMC10937945.
# Biological target: HTNV-L (full-length Hantaan virus polymerase, L protein) (Hantaan virus (strain 76-118/Korean …, UniProt P23456 1-2151))
# Assay: cryo-EM; 30 mM HEPES pH 8, 250 mM NaCl, 5 mM TCEP ([…]; temperature not stated
# Conditions: protein: recombinant; tags: N-terminal His6
# Chain of HTNV-L (full-length Hantaan virus polymerase, L protein) (Hantaan virus (P23456 whole entry): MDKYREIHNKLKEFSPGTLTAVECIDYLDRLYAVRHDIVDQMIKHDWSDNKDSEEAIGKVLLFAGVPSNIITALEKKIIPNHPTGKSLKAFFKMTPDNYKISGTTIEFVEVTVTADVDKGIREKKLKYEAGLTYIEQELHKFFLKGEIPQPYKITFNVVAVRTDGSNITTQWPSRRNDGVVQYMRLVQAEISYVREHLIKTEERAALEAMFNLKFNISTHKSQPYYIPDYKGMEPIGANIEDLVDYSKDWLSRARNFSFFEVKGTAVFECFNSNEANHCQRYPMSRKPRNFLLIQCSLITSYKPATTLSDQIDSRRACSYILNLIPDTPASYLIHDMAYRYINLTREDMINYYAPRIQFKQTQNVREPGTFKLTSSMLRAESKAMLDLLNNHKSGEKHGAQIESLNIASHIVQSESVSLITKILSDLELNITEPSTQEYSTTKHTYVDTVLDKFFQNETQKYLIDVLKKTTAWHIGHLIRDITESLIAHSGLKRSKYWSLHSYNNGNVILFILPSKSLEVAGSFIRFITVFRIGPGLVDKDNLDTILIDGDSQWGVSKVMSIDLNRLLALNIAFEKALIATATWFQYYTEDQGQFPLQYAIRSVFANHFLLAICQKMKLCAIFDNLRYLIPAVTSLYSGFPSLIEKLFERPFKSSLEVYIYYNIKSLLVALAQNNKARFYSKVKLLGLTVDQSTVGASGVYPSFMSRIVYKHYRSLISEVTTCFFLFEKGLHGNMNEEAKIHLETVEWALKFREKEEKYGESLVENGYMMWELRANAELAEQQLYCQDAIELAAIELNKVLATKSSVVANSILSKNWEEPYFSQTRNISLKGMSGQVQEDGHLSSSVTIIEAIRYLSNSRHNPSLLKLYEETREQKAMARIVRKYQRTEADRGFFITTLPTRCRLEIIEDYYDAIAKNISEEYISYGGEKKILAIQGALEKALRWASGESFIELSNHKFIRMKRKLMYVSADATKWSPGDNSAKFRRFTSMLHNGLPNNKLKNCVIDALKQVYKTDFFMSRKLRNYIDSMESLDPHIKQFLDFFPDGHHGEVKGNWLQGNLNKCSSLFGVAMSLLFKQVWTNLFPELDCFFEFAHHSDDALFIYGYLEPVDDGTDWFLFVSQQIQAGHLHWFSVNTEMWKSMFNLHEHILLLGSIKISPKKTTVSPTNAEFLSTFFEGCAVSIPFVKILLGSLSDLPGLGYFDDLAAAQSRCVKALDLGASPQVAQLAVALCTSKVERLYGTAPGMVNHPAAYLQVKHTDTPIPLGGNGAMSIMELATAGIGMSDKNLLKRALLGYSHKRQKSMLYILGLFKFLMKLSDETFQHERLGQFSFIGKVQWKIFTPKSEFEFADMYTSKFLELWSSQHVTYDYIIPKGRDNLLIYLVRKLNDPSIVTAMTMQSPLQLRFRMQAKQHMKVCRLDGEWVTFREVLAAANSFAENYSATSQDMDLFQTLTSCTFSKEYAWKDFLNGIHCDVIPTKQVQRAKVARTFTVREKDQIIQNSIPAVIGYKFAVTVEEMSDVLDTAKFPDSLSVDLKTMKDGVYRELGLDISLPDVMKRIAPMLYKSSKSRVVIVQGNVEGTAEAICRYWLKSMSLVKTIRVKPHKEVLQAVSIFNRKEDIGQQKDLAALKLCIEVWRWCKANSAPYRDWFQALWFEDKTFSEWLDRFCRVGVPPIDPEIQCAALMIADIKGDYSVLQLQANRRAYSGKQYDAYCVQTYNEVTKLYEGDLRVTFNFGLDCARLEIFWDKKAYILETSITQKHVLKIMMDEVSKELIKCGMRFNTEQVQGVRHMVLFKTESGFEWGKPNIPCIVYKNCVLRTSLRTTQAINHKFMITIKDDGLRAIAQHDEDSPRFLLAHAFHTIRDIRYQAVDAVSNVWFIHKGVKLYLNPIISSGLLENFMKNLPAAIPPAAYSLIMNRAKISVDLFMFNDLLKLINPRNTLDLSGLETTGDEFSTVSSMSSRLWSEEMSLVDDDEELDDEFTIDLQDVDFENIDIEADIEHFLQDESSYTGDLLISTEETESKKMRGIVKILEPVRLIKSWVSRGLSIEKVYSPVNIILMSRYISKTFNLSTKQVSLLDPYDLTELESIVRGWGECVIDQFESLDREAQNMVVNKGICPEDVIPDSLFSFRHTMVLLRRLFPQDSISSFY
binder,measurement,value
UAGUAGUAGACACCGCAAGAUGUUA (ssRNA) [5'vRNA],binding result,binds
